Test results: US20100111959A1
Where “and” joins values, the source holds several entries; their conditions need not be identical. Equal entries are not always repeated.

Columns and labels:
[1] = target: human IL-13 R130Q variant (R110Q of the mature chain) (human) (UniProt P35225); test: IL-13Ra2 binding inhibition ELISA, crude supernatant
[2] = target: human IL-13 R130Q variant (R110Q of the mature chain) (human) (UniProt P35225); test: direct binding ELISA, crude supernatant, relative to Lc16Hc7
[3] = target: human IL-13 R130Q variant (R110Q of the mature chain) (human) (UniProt P35225); test: Biacore SPR, mAb from CHO
[4] = target: human IL-13 R130Q variant (R110Q of the mature chain) (human) (UniProt P35225); test: Biacore SPR, mAb from HEK293

Row | Binder | Percent Inhibition IL-13 R130Q (333 ng/ml) to Ra2 [1] [%] | Percent IL-13 R130Q (30 ng/ml) Binding [2] [%] | Kd [3] [nM] | Kd [4]
1 | Lc3Hc6 (antibody, human IgG1, V domains shown) VH: QVQLVESGGGVVQPGRSLRLSCAASGFSLSTYGMGVGWVRQAPGKGLEWVAHIWWDDVKRYNPALKSRFTISRDNSKNTLYLQMNSLRAEDTAVYYCARMGSDYDVWFDYWGQGTLVTVSS VL: AIQLTQSPSSLSASVGDRVTITCRASKSISKYLAWYQQKPGKAPKLLIYSGSTLQSGVPSRFSGSGSGTDFTLTISSLQPEDFATYYCQQHNEYPYTFGGGTKVEIK | 14 | 26.6 | – | –
2 | Lc7Hc6 (antibody, human IgG1, V domains shown) VL: DIQLTQSPSSLSASVGDRVTITCRASKSISKYLAWYRQKPGKVPKLLIYSGSTLQSGVPSRFSGSGSGTDFTLTISSLQPEDVATYYGQQHNEYPYTFGQGTKLEIK VH: QVQLVESGGGVVQPGRSLRLSCAASGFSLSTYGMGVGWVRQAPGKGLEWVAHIWWDDVKRYNPALKSRFTISRDNSKNTLYLQMNSLRAEDTAVYYCARMGSDYDVWFDYWGQGTLVTVSS | 4 | -0.3 | – | –
3 | mAb Lc-2B03 + Hc2 M34S, M100L (antibody, human IgG1, V domains shown) VH: QVTLKESGPVLVKPTETLTLTCTVSGFSLSTYGSGVGWIRQPPGKALEWLAHIWWDDVKRYNPALKSRLTISKDTSKSQVVLTMTNMDPVDTATYYCARLGSDYDVWFDYWGQGTLVTVSS VL: EIVLTQSPATLSLSPGERATLSCRASKSISKYLAWYQQKPGQAPRLLIYSGSTLQSGIPARFSGSGSGTDFTLTISSLEPEDFAVYYCQQHDYPYTFGQGTKLEIKR | – | – | 0.0184 | 0.0014 nM
4 | Lc15Hc1 (antibody, human IgG1, V domains shown) VH: QVTLKESGPALVKPTQTLTLTCTFSGFSLSTYGMGVGWIRQPPGKALEWLAHIWWDDVKRYNPALKSRLTISKDTSKNQVVLTMTNMDPVDTATYYCARMGSDYDVWFDYWGQGTLVTVSS VL: VIWMTQSPSLLSASTGDRVTISCRASKSISKYLAWYQQKPGKAPELLIYSGSTLQSGVPSRFSGSGSGTDFTLTISCLQSEDFATYYCQQHNEYPYTFGGGTKVEIK | 44 | 76.2 | – | –
5 | mAb Lc-2B03 + Hc2 T31S, M34S, M100L (antibody, human IgG1, V domains shown) VH: QVTLKESGPVLVKPTETLTLTCTVSGFSLSSYGSGVGWIRQPPGKALEWLAHIWWDDVKRYNPALKSRLTISKDTSKSQVVLTMTNMDPVDTATYYCARLGSDYDVWFDYWGQGTLVTVSS VL: EIVLTQSPATLSLSPGERATLSCRASKSISKYLAWYQQKPGQAPRLLIYSGSTLQSGIPARFSGSGSGTDFTLTISSLEPEDFAVYYCQQHDYPYTFGQGTKLEIKR | – | – | 0.0101 | 0.0123 nM
6 | mAb Lc-2B03 + Hc2 M34V, M100L (antibody, human IgG1, V domains shown) VH: QVTLKESGPVLVKPTETLTLTCTVSGFSLSTYGVGVGWIRQPPGKALEWLAHIWWDDVKRYNPALKSRLTISKDTSKSQVVLTMTNMDPVDTATYYCARLGSDYDVWFDYWGQGTLVTVSS VL: EIVLTQSPATLSLSPGERATLSCRASKSISKYLAWYQQKPGQAPRLLIYSGSTLQSGIPARFSGSGSGTDFTLTISSLEPEDFAVYYCQQHDYPYTFGQGTKLEIKR | – | – | 0.019 | 0.0164 nM
7 | mAb Lc-2B03 + Hc2 T31S, M34V, M100L (antibody, human IgG1, V domains shown) VH: QVTLKESGPVLVKPTETLTLTCTVSGFSLSSYGVGVGWIRQPPGKALEWLAHIWWDDVKRYNPALKSRLTISKDTSKSQVVLTMTNMDPVDTATYYCARLGSDYDVWFDYWGQGTLVTVSS VL: EIVLTQSPATLSLSPGERATLSCRASKSISKYLAWYQQKPGQAPRLLIYSGSTLQSGIPARFSGSGSGTDFTLTISSLEPEDFAVYYCQQHDYPYTFGQGTKLEIKR | – | – | 0.0058 | 0.0037 nM
8 | mAb Lc-2B03 + Hc2 M34E, M100L (antibody, human IgG1, V domains shown) VH: QVTLKESGPVLVKPTETLTLTCTVSGFSLSTYGEGVGWIRQPPGKALEWLAHIWWDDVKRYNPALKSRLTISKDTSKSQVVLTMTNMDPVDTATYYCARLGSDYDVWFDYWGQGTLVTVSS VL: EIVLTQSPATLSLSPGERATLSCRASKSISKYLAWYQQKPGQAPRLLIYSGSTLQSGIPARFSGSGSGTDFTLTISSLEPEDFAVYYCQQHDYPYTFGQGTKLEIKR | – | – | – | 0.0076 nM
9 | mAb Lc-2B03 + Hc2 M34S, M100L, V106I (antibody, human IgG1, V domains shown) VH: QVTLKESGPVLVKPTETLTLTCTVSGFSLSTYGSGVGWIRQPPGKALEWLAHIWWDDVKRYNPALKSRLTISKDTSKSQVVLTMTNMDPVDTATYYCARLGSDYDIWFDYWGQGTLVTVSS VL: EIVLTQSPATLSLSPGERATLSCRASKSISKYLAWYQQKPGQAPRLLIYSGSTLQSGIPARFSGSGSGTDFTLTISSLEPEDFAVYYCQQHDYPYTFGQGTKLEIKR | – | – | – | 0.0205 nM and 0.0209 nM
10 | mAb Lc-2B03 + Hc2 M34V, M100L, V106I (antibody, human IgG1, V domains shown) VH: QVTLKESGPVLVKPTETLTLTCTVSGFSLSTYGVGVGWIRQPPGKALEWLAHIWWDDVKRYNPALKSRLTISKDTSKSQVVLTMTNMDPVDTATYYCARLGSDYDIWFDYWGQGTLVTVSS VL: EIVLTQSPATLSLSPGERATLSCRASKSISKYLAWYQQKPGQAPRLLIYSGSTLQSGIPARFSGSGSGTDFTLTISSLEPEDFAVYYCQQHDYPYTFGQGTKLEIKR | – | – | – | 0.0252 nM
11 | mAb Lc-2B03 + Hc2 M34E, M100L, V106I (antibody, human IgG1, V domains shown) VH: QVTLKESGPVLVKPTETLTLTCTVSGFSLSTYGEGVGWIRQPPGKALEWLAHIWWDDVKRYNPALKSRLTISKDTSKSQVVLTMTNMDPVDTATYYCARLGSDYDIWFDYWGQGTLVTVSS VL: EIVLTQSPATLSLSPGERATLSCRASKSISKYLAWYQQKPGQAPRLLIYSGSTLQSGIPARFSGSGSGTDFTLTISSLEPEDFAVYYCQQHDYPYTFGQGTKLEIKR | – | – | – | 0.0114 nM
12 | mAb Lc-2B03 + Hc2 M34Q, M100L (antibody, human IgG1, V domains shown) VH: QVTLKESGPVLVKPTETLTLTCTVSGFSLSTYGQGVGWIRQPPGKALEWLAHIWWDDVKRYNPALKSRLTISKDTSKSQVVLTMTNMDPVDTATYYCARLGSDYDVWFDYWGQGTLVTVSS VL: EIVLTQSPATLSLSPGERATLSCRASKSISKYLAWYQQKPGQAPRLLIYSGSTLQSGIPARFSGSGSGTDFTLTISSLEPEDFAVYYCQQHDYPYTFGQGTKLEIKR | – | – | 0.0251 | 0.0243 nM
13 | mAb Lc-2B03 + Hc2 T31S, M34S, M100L, V106I (antibody, human IgG1, V domains shown) VH: QVTLKESGPVLVKPTETLTLTCTVSGFSLSSYGSGVGWIRQPPGKALEWLAHIWWDDVKRYNPALKSRLTISKDTSKSQVVLTMTNMDPVDTATYYCARLGSDYDIWFDYWGQGTLVTVSS VL: EIVLTQSPATLSLSPGERATLSCRASKSISKYLAWYQQKPGQAPRLLIYSGSTLQSGIPARFSGSGSGTDFTLTISSLEPEDFAVYYCQQHDYPYTFGQGTKLEIKR | – | – | 0.0211 | 0.0152 nM
14 | Lc7Hc1 (antibody, human IgG1, V domains shown) VL: DIQLTQSPSSLSASVGDRVTITCRASKSISKYLAWYRQKPGKVPKLLIYSGSTLQSGVPSRFSGSGSGTDFTLTISSLQPEDVATYYGQQHNEYPYTFGQGTKLEIK VH: QVTLKESGPALVKPTQTLTLTCTFSGFSLSTYGMGVGWIRQPPGKALEWLAHIWWDDVKRYNPALKSRLTISKDTSKNQVVLTMTNMDPVDTATYYCARMGSDYDVWFDYWGQGTLVTVSS | 6 | -1.4 | – | –
